Source: patent publication US20090017017A1 (SYMPHOGEN A S, published 2009)

T1: Rhesus D antigen (human, UniProt Q02161 2-417)
T1 construct: whole, on cells; Presented on RhD(+) erythrocytes; also called RhD; RhD antigen
T1 sequence (looked up): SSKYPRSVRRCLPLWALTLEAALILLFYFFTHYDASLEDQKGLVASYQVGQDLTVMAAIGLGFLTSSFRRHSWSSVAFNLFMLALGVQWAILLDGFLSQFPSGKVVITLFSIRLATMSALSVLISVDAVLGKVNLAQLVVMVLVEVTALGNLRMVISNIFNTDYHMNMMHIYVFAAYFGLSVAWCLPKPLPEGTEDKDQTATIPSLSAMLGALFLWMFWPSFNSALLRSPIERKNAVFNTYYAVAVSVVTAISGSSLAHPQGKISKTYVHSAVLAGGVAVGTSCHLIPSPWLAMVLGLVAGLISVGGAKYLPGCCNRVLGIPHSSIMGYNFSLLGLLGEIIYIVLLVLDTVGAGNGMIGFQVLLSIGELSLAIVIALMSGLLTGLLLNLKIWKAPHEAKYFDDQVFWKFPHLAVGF


Target: T1, Rhesus D antigen
Experiment: Fab screening on RBC (agglutination, FACS)
Procedure: After each round of panning single colonies were picked for analysis of their binding properties to red blood cells in agglutination assays. Briefly, single colonies were inoculated into 2×YT/100 μg/mL carbenicillin/1% glucose and shaken overnight at 37° C. The next day, DeepWell plates were inoculated using 900 μl 2×YT/100 μg/mL carbenicillin/0.1% glucose and 10 μl overnight culture. The plates were shaken for two hours at 37° C., before Fab induction was performed with addition of 300 μl 2×YT/100 μg/mL carbenicillin/0.25 mM IPTG per well. The plate was shaken overnight at 30° C. The following day, the bacteria were pelleted by centrifugation (3200×g, 4° C., 10 minutes), and re-suspended in 100 μl of 0.8 M NaCl, 0.2×PBS, 8 mM EDTA, and incubated for 15 minutes on ice in order to perform a periplasmic extraction of the Fab fragments. The plate was transferred to −20° C. and finally the suspension was thawed and centrifugation was performed for 10 minutes at 4° C. and 3200×g. The periplasmic extract was used in ELISA assays for analysis of Fab content and in agglutination assays to evaluate the binding potential of the individual Fab fragments.
The agglutination assay was performed as follows: RhD(−) and RhD(+) RBC were mixed in a 1:1 ratio, and washed 3 times in PBS. After the final wash, the cell mix was re-suspended in 1% BSA in PBS at a density of 10% cells, 50 μl was added to each well of a 96-plate. Periplasmic extracts were added to the wells. As a positive control Rhesogamma P immunoglobulin (Aventis) was used according to the manufacturer's instructions. The plates were incubated for one hour at room temperature with gentle shaking. The cells were washed three times with PBS, before the secondary antibody was added (goat anti-human Fab/FITC conjugate, Sigma F5512) in a 1:100 dilution. The plates were left for agglutination for one hour at room temperature without shaking. Fab fragments positive in the agglutination assay was determined by visual inspection, and recorded by taking a picture. Quantization of the binding activity of the Fab fragments was performed by FACS analysis of the agglutination samples.

| Binder | binding result |
| --- | --- |
| RhD163.119A02 (Fab, V domains shown, Tested as Fab in E. coli periplasmic extract (VH on human gamma 1 CH1, vector Em351)) VH: QVQLQESGPGLVKPSETLSLTCTVSGGSISSYYWSWVRQPPGKGLEWIGYIYYSGSTNYNPSLKSRVTIALDTSKNQFSLKLRSVTAADTAVYFCTRDWRQYGSAIRGSRYYYGMDVWGQGTTVTVSS VL: EIVLTQSPGTLSLSPGERATLSCRASQNPRRNFLAWYQQKPGQAPRLLIYAASTRATGIPDRFSGSGSGTDFTLTIDRLEPEDSAVYYCQVYGSSPLYTFGQGTKVEMKR | binds |
| RhD319.187A11 (Fab, V domains shown, Tested as Fab in E. coli periplasmic extract (VH on human gamma 1 CH1, vector Em351)) VH: QVQLVESGGGVVQPGRSLRLSCAASGFTFSTYGMHWVRQAPGKGLEWVAVIWYDGSNKNYADSVKGRFTISRDNSKNTLYLQMNSLRAEDTAVYYCARDLQGYRSSWYRMYYYYGMDVWGQGTTVTVSS VL: QTVVTQEPSLTVSPGGTVTLTCASSTGAVTSGYYPNWFQQKPGQAPRALIYSTSNKHSWTPARFSGSLLGGKAALTLSGVQPEDEAEYYCLLYYGGAQRWVFGGGTILTVLG | binds |
| RhD323.229B07 (Fab, V domains shown, Tested as Fab in E. coli periplasmic extract (VH on human gamma 1 CH1, vector Em351)) VH: QVQLVESGGGVVQPGRSLRLSCAASGFTFSSYGMHWVRQAPGKGLEWVAVIWYDGSNKYYADSVKGRFTISRDNSKNTLYLQMNSLRAEDTAVYYCARDWVTRSSNWYRNYYYYGMDVWGQGTTVTVSS VL: DIQMTQSPSSLSASVGDRVTITCRASQSISSYLNWYQQKPGKAPKLLIYAASTLQSGVPSRFSGSGSGTDFTLTISSLQPEDFATYYCQQYYRTPTWTFGQGTKVEIKR | binds |
| RhD321.187G08 (Fab, V domains shown, Tested as Fab in E. coli periplasmic extract (VH on human gamma 1 CH1, vector Em351)) VH: EVQLVESGGGLVKPGGSLRLSCAASGFTFRSYSMNWVRQAPGKGLEWVSSIGSSSIYTYSADSVKGRFTISRDNAKNSLYLQMNSLRAEDTAVYYCARGEPLNYDYIWGRSRLTIHWGQGTLVTVSS VL: LNFMLTQPHSVSESPGKTVTISCTRSSGSIASNYMQWYQQRPGSSPTTVIYEDNRRPSGVPDRFSGSIDSSSNSASLTISGLKTEDEADYYCQSYDSNNWVFGGGTKLTVLG | binds |

Further lines, results first:

| binding result | Binder |
| --- | --- |
| binds | RhD162.119G12 (Fab, V domains shown, Tested as Fab in E. coli periplasmic extract (VH on human gamma 1 CH1, vector Em351)) VH: QVQLVESGGGLVKPGGSLRLSCAASGFGFSAYSMNWVRQAPGKGLEWVSSITSTTTYYADSVKGRFSISRDNAKSTLYLRMNSLRAEDTAVYYCVREIAFRGSTYSRWSYYFDFWGQGTLVTVSS VL: DIQLTQSPSSVSASVGDSVTITCRASQAVSGWVAWYQQKPGKAPKLLIFGLSNLEDGVPSRFSGSGSATDFTLTITGLQPEDLATYYCLQANRFPLSFGGGTRVEIKR |
| binds | RhD324.231F07 (Fab, V domains shown, Tested as Fab in E. coli periplasmic extract (VH on human gamma 1 CH1, vector Em351)) VH: EVQLVESGGGLVQPGRSLRLSCVASGFTFSSYWMHWVRQVPGKGLVWVSRINVDGKSTSYADSVKGRFTISRDNAKNTLYLQMNSLRAEDTAVYYCARDPRRFLEWARYGMDVWGRGTTVTVSS VL: not shown |
| binds | RhD189.181E07 (Fab, V domains shown, Tested as Fab in E. coli periplasmic extract (VH on human gamma 1 CH1, vector Em351)) VH: QVQLVESGGGVVQPGRSLRLSCAASGFTFSSYGMHWVRQAPGKGLEWVAVIWYDGSNKYYADSVKGRFTISRDNSKNTLYLQMNSLRAEDTAVYYCARDMVTMVRGAYRNYYYYGMDVWGKGTTVTVSS VL: not shown |
